Experimental data published in publication PMC3418226.

Target: SAP (UniProt O60880)
Test: GST-SAP pull-down, anti-myc blot
Settings: reference: myc-CD3ζ wild type

For CD3ζ (from UniProt P20963) Y83F, the “binding against the reference” value (sites Y83) was “weaker”.
In the case of “CD3ζ (from UniProt P20963) Y72F/Y83F (first ITAM)”, the “binding against the reference” value (sites Y72,Y83) is reported as “lost”.
In the case of CD3ζ (from UniProt P20963) Y72F, the “binding against the reference” value (sites Y72) is reported as “weaker”.
